Measurements taken from patent US20160304615A1 (Regeneron, published 2016).

What was measured:
[1] = target: T1, full-length hEGFRvIII on cells (human, UniProt P00533 298-1210); assay: FACS, HEK293/EGFRvIII cells, PE secondary antibody
T1 construct: Expressed from vectors in HEK293, U87, B16F10.9, U251 and MMT 060562 cells; also called HEK293/EGFRvIII; HEK293/hEGFRvIII
Description: (§1) To determine the specificity of the anti-EGFRvIII mAbs, their binding to HEK293, HEK293 cells expressing EGFRvIII (HEK293/EGFRvIII) and A431 cells, was analyzed by fluorescence activated cell sorting (FACS). HEK293/EGFRvIII cells were prepared by transfecting HEK293 cells with neomycin resistant DNA vectors constitutively expressing full-length hEGFRvIII (SEQ ID NO:147) using LIPOFECTAMINE™ 2000 transfection reagent (INVITROGEN™). At two days post-transfection, cells were placed under G418 selection for approximately two weeks. Populations positively expressing EGFRvIII were isolated via fluorescence activated cell sorting (FACS). The HEK293 cells expressing ˜3×10⁶ copies of EGFRvIII per cell were used in the experiment. […] In another set of experiment, anti-EGFRvIII antibodies were directly conjugated via their lysine residues with the fluorescent dye, ALEXA FLUOR® 488 Dye (INVITROGEN™), thereby eliminating the step using the secondary antibody. […] Controls I, II, III, IV and V are described above. MFI: Mean Fluorescence Intensity.

[2] = target: T2, EGFR-mFc (human); assay: SPR 37C, receptor-capture
T2 construct: Soluble dimeric protein
Description: (§2) Measurements were conducted on a T100 BIACORE™ instrument. […] In the receptor-capture format, either EGFRvIII-mFc or EGFR-mFc, was captured on the BIACORE™ chip and the respective antibodies flowed over. Kinetic association (kₐ) and dissociation (kd) rate constants were determined by processing and fitting the data to a 1:1 binding model using Scrubber 2.0 curve fitting software. Binding dissociation equilibrium constants (KD) and dissociative half-lives (t_{1/2}) were calculated from the kinetic rate constants as: KD (M)=kd/kₐ; and t₁₁₂ (min)=ln2/(60*kd).

[3] = target: T3, EGFRvIII-mFc (human); assay: SPR 37C, receptor-capture
T3 construct: Soluble dimeric protein
Description: as §2

[4] = target: T4, EGFRvIII-mmh (human, UniProt P00533 298-647, limits assumed); assay: ELISA
T4 construct: Soluble monomeric protein; also called hEGFRvIII-mmh; hEGFRvIII.mmh
Excerpt: (§3) To further characterize anti-hEGFRvIII mAbs, their binding specificity was examined by ELISA. […] Also, coated was an irrelevant peptide (control peptide) with or without biotin at its N-terminal. […] The plates were then washed and bound anti-EGFRvIII mAbs were detected with anti-human Fc antibodies conjugated with horse-radish peroxidase (HRP). […] Data analysis used a sigmoidal dose-response model within PRISM™ software.

[5] = target: T5, EGFR-mmh (human, UniProt P00533 25-647, limits assumed); assay: ELISA
T5 construct: Soluble monomeric protein; also called hEGFR-mmh
Excerpt: as §3

[6] = target: T6, wild-type human EGFR on cells (human, UniProt P00533 25-1210); assay: FACS, A431 cells, PE secondary antibody
T6 construct: Stands for transfected HEK293/hEGFRwt, endogenous EGFR of A431 and of parental HEK293 cells, and human EGFR of hEGFR mice; the cell line is named under assay; also called EGFRwt; hEGFRwt
Description: as §1

[7] = target: T2, EGFR-mFc; assay: SPR 37C, mAb-capture
[8] = target: T3, EGFRvIII-mFc; assay: SPR 37C, mAb-capture
[9] = target: T4, EGFRvIII-mmh; assay: SPR 37C, mAb-capture
[10] = target: T5, EGFR-mmh; assay: SPR 37C, mAb-capture
[11] = target: T5, EGFR-mmh; assay: ELISA; ELISA, 25 C, EGFR-mmh coated on the plate
Excerpt: as §3

[12] = target: T2, EGFR-mFc; assay: SPR 37C, receptor-capture; 37 C, receptor-capture format (EGFR-mFc captured)
Description: as §2

[13] = target: T1, full-length hEGFRvIII on cells; assay: FACS, HEK293/EGFRvIII cells, directly labeled antibody
Description: as §1

[14] = target: T6, wild-type human EGFR on cells; assay: FACS, A431 cells, directly labeled antibody
Description: as §1

[15] = target: T1, full-length hEGFRvIII on cells; assay: cell-based or functional assay
[16] = target: T3, EGFRvIII-mFc; assay: SPR 37C, receptor-capture; 37 C, receptor-capture format (EGFRvIII-mFc captured)
Description: as §2

[17] = target: T4, EGFRvIII-mmh; assay: ELISA; ELISA, 25 C, EGFRvIII-mmh coated on the plate
Excerpt: as §3

Binder | HEK293/EGFRvIII MFI [1] [MFI] | Ratio (EGFRvIII MFI/parental MFI) [1] | Kd [3] [nM] | T½ [3] [h] | koff [3] [s⁻¹] | kon [3] [M⁻¹ s⁻¹] | EC50 [4] [nM] | Kd [8] [nM] | T½ [8] [min] | koff [8] [s⁻¹] | kon [8] [M⁻¹ s⁻¹] | Kd [9] [nM] | T½ [9] [min] | koff [9] [s⁻¹] | kon [9] [M⁻¹ s⁻¹] | Kd [12] [nM] | koff [12] [s⁻¹] | kon [12] [M⁻¹ s⁻¹] | HEK293/EGFRvIII MFI [13] [MFI] | Ratio (EGFRvIII MFI/parental MFI) [13] | also measured
H1H2194P (antibody, human IgG1, V domains shown, Human IgG1 Fc; also called H1H2194N) VH: QVQLVQSGAEVKKPGASVKVSCKASGYTFTSYDINWVRQATGQGLEWMGWINPNSDYTGYVQKFQGRVTMTRDTSISTAYMELSSLRSEDTAVYYCATSRWSEHFHHWGQGTLVTVSS VL: not shown | 18600 | 18.9 | 0.394 | 2.62 | 7.38e-05 | 188000 | 0.0032 | 2.33 | 52 | 0.000222 | 95400 | 17 | 8 | 0.00137 | 81000 | – | – | – | – | – | Kd [2]: 0.38 nM; T½ [2]: 163 min; koff [2]: 7.07e-05 s⁻¹; kon [2]: 187000 M⁻¹ s⁻¹; EC50 [5]: 0.0037 nM; A431 MFI [6]: 2290 MFI; Fold Above Background [6]: 1.6 fold; Kd [7]: 2.43 nM; T½ [7]: 58 min; koff [7]: 0.000199 s⁻¹; kon [7]: 81000 M⁻¹ s⁻¹; Kd [10]: 12.6 nM; T½ [10]: 12 min; koff [10]: 0.00096 s⁻¹; kon [10]: 76000 M⁻¹ s⁻¹
H1H1913N (antibody, human IgG1, V domains shown, Human IgG1 Fc; also called H3M1913N (same variable domains)) VH: QVQLQQWGAGLLKPSETLSLTCAVYGGSFSGDYWSWIRQSPGKGLEWIGEINHSGSTNYNPSLKSRVTISIDTSKNQFSLKLSSVTAADTAVYYCARGGGDYYYGMDVWGLGTTVTVSS VL: AIQMTQSPSSLSASVGDRVTITCRASQGIGNDLGWYQQKPGKAPNLLIYATSSLQSGVPSRFSGSGSGTDFTLTISSLQPEDFATYYCLQDYNYPWTFGQGTKVEIK | – | – | ≤ 0.0159 | 192 | ≤ 1e-06 | 63000 | 2.14 | 22.6 | 37 | 0.000316 | 14000 | 7030 | 10 | 0.00114 | 163 | ≤ 0.169 | ≤ 1e-06 | 5930 | 239000 | 49.8 | EC50 [11]: 2.55 nM
H1H2195P (antibody, human IgG1, V domains shown, Human IgG1 Fc; also called H1H2195N) VH: QVQLVESGGGVVQPGRSRRLSCVGSGFIFSSYGMHWVRQAPGKGLEWVALIFYDGSNEYYVDSVKGRFTISRDNSKNTLYLQMNSLRAEDTAVYYCAREGYSQRYKYYFGMDVWGQGTTVTVSS VL: DIQMTQSPSSVSASVGDRVTITCRASQGISSWLAWYQQQPGKAPKLLIYAASSLQSGVPSRFSGSGSGTDFTLTISSLQPEDFATYYCQQTNSFPLTFGGGTKVEIKR | 13500 | 11.5 | 0.106 | 7.6 | 2.53e-05 | 237000 | 0.0049 | 1.1 | 103 | 0.000113 | 102000 | 10.7 | 17 | 0.000694 | 64800 | – | – | – | – | – | Kd [2]: 0.231 nM; T½ [2]: 222 min; koff [2]: 5.2e-05 s⁻¹; kon [2]: 225000 M⁻¹ s⁻¹; EC50 [5]: 0.0052 nM; A431 MFI [6]: 2230 MFI; Fold Above Background [6]: 1.6 fold; Kd [7]: 2.05 nM; T½ [7]: 61 min; koff [7]: 0.000189 s⁻¹; kon [7]: 92000 M⁻¹ s⁻¹; Kd [10]: 9.2 nM; T½ [10]: 22 min; koff [10]: 0.000523 s⁻¹; kon [10]: 56600 M⁻¹ s⁻¹
H1H1912N (antibody, human IgG1, V domains shown, Human IgG1 Fc; also called H2M1912N (same variable domains)) VH: EVQLVESGGGLVQPGRSLRLSCAASGFTFDDYAMHWVRQVPGKGLEWVSGISWNSGSIGYADSVKGRFTISRDNAKNSLYLQMNSLRAEDTALYYCAKDIHDYGKDYYYYYGMDVWGQGTTVTVSS VL: EIALTQSPGTLSLSPGERATLSCRASQSVSSTYLAWYQQKPGQAPRLLIYGASSRATGIPDRFSGSGSGTDFTLTISRLEPEDFAVYYCQQYDSSPITFGQGTRLEIK | – | – | 5.4 | 0.367 | 0.000537 | 99000 | 0.0118 | 47.7 | 12 | 0.000971 | 20400 | 899 | 0.7 | 0.0164 | 18300 | 22.9 | 0.000914 | 39900 | 122000 | 32.7 | A431 MFI [14]: 14300 MFI; Fold Above Background [14]: 2.1 fold; EC50 [11]: 0.0405 nM; Fluorescent Intensity of vesicles 4° C., Mean [15]: 4910; Fluorescent Intensity of vesicles 37° C., Mean [15]: 370000; T½ [12]: 13 min
H1H1911N (antibody, human IgG1, V domains shown, Human IgG1 Fc; also called H2M1911N (same variable domains)) VH: QVQLVESGGGVVQPGRSLRLSCAASGFTFSRYGIHWVRQAPGKGLEWVAVIWHDGSNKYYADSVKGRFTISRDNSKNTLYLQMTSLRAEDTAVYYCARDGLEIRDHYYYGMDVWGQGTTVTVSS VL: DIQMTQSPSTLSASVGDRVTITCRASQSTSSWLAWYQQKPGKAPTLLIYKASSLESGVPSKFSGSGSGTEFTLTISSLQPDDFATYYCQQYNRYSRTFGQGTKVEIK | 107000 | 59.1 | – | – | – | – | – | – | – | – | – | – | – | – | – | 224 | 0.00174 | 7770 | 55100 | 15.3 | A431 MFI [14]: 16000 MFI; Fold Above Background [14]: 2.4 fold; EC50 [11]: 9.06 nM; Fluorescent Intensity of vesicles 4° C., Mean [15]: 29800; Fluorescent Intensity of vesicles 37° C., Mean [15]: 280000; Kd [16]: 19.5 nM; T½ [16]: 18 min; koff [16]: 0.000643 s⁻¹; kon [16]: 32900 M⁻¹ s⁻¹; A431 MFI [6]: 3140 MFI; Fold Above Background [6]: 2.2 fold; EC50 [17]: 0.0748 nM; T½ [12]: 7 min
H1H1863N2(Fuc+) (antibody, human IgG1, V domains shown, the numerical identifier ties them; also called H1H863N2; H1H863N2(Fuc+)) VH: EVQLVESGGGLVQPGGSLRLSCAASGFPFSSYDMHWVRQATGKGLEWVSAIGTAGATYYPGSVKGRFTISRENAKNSLYLQMNSLRAGDTAVYYCARGDYVWGTYRPLFDYWGQGTLVTVSS VL: DIQLTQSPSFLSASVGDRVTITCWASQGINNYLAWYQQKPGKAPKLLIYAASTLQTGVPSRFSGSGSGTEFTLTISSLQPEDFATYYCQQLNSYPLTFGGGTKVEIK | – | – | – | 0.933 | – | – | – | – | 14 | – | – | – | – | – | – | – | – | – | – | – | –
H1H1915N (antibody, human IgG1, V domains shown, Human IgG1 Fc; also called H2M1915N (same variable domains)) VH: QVQLVESGGGVVQPGRSLRLSCAASGFTFSAYAMHWVRQAPGKGLEWVAVIWYDGSNKNYADSVKGRFTVSRDNSKNTLYLEMNSLRAEDTAVYYCARDLMVGVTNYWGQGTLVTVST VL: DVVMTQSPLSLPVALGQPASISCRSSQSLVYTDGNTYLNWFHQRPGQSPRRLIYKVSNRDSGVPDRFTGSGSGTDFTLKISRVEAEDVGVFYCMQGSHWPPYTFGQGTKLEIK | – | – | – | – | – | – | – | – | – | – | – | – | – | – | – | 184 | 0.00801 | 43500 | 73400 | 21.2 | A431 MFI [14]: 8440 MFI; Fold Above Background [14]: 1.2 fold; Kd [16]: 3.2 nM; T½ [16]: 35 min; koff [16]: 0.000328 s⁻¹; kon [16]: 100000 M⁻¹ s⁻¹; EC50 [17]: 0.167 nM; T½ [12]: 1.4 min
